Assay results published in publication PMC12668182 (2025).

Biological target: N-His-ZB-CSB-Avi-Biotin (WT), full length (human, UniProt Q03468 1-1493, biotin on the C-terminal Avi tag)
Test: SPR

Sequence of N-His-ZB-CSB-Avi-Biotin (WT), full length (Q03468 whole entry): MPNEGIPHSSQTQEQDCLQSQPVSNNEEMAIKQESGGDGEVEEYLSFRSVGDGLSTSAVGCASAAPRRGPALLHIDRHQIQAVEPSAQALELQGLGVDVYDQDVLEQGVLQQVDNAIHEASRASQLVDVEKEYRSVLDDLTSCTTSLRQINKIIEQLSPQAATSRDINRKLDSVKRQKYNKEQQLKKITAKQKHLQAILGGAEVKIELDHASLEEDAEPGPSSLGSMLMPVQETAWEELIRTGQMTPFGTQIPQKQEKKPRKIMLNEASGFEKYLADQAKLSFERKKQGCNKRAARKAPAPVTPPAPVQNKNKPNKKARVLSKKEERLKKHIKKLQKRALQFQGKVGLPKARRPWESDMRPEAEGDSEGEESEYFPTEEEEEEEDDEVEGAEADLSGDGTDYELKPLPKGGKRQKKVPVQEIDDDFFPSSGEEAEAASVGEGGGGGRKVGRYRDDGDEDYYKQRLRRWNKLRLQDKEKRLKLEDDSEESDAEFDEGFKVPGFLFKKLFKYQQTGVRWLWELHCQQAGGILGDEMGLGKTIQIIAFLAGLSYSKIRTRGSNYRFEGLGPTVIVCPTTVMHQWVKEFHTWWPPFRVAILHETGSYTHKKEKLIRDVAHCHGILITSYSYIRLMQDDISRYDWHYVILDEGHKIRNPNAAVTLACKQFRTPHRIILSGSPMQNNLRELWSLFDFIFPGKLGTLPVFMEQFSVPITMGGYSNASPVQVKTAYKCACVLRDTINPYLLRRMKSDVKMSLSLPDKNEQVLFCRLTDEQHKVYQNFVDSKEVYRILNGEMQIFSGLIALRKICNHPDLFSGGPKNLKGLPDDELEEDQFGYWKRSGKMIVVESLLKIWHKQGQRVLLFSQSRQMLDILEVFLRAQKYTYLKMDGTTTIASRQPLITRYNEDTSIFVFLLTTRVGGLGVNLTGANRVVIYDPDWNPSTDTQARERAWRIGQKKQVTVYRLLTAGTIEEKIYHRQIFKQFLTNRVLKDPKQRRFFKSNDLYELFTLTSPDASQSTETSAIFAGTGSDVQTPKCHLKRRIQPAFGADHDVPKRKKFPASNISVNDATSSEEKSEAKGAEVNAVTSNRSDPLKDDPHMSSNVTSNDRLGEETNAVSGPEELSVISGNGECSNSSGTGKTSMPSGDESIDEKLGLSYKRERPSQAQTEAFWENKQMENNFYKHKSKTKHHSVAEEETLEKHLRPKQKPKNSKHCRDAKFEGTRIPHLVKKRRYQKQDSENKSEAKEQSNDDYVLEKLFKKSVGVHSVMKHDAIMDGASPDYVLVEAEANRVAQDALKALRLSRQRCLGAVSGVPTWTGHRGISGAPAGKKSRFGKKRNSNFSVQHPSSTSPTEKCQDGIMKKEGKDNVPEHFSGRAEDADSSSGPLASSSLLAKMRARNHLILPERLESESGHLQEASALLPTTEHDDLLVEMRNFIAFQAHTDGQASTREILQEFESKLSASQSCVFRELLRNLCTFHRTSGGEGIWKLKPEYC

B1: SNM1A (WT, a.a. 698-1040, untagged) (domain or fragment)
chain: KKTCPFYKKIPGTGFTVDAFQYGVVEGCTAYFLTHFHSDHYAGLSKHFTFPVYCSEITGNLLKNKLHVQEQYIHPLPLDTECIVNGVKVVLLDANHCPGAVMILFYLPNGTVILHTGDFRADPSMERSLLADQKVHMLYLDTTYCSPEYTFPSQQEVIRFAINTAFEAVTLNPHALVVCGTYSIGKEKVFLAIADVLGSKVGMSQEKYKTLQCLNIPEINSLITTDMCSSLVHLLPMMQINFKGLQSHLKKCGGKYNQILAFRPTGWTHSNKFTRIADVIPQTKGNISIYGIPYSEHSSYLEMKRFVQWLKPQKIIPTVNVGTWKSRSTMEKYFREWKLEAGY
Work on B1 yielded a Kd of 140 nM.
